Experimental data from the supplement of paper PMC5998384.

Columns and labels:
HeLa Kyoto [1] = test: solubility change mitosis vs G1/S (difference of NP-40 vs SDS log2 ratios) (log2 ratio difference); higher = more soluble in mitosis
HeLa Kyoto [2] = test: melting temperature (median over replicates), in situ; higher = more thermally stable
HeLa Kyoto [3] = test: solubility in G1/S (NP-40 vs SDS abundance) (log2 ratio); higher = more soluble; settings: cell cycle stage: G1/S
HeLa Kyoto [4] = test: thermal stability score vs G1/S (z-score of summed log2 fold changes over temperatures); higher = more thermally stable than in G1/S
[5] = cell cycle stage: early G1 (4.5 h after nocodazole release)
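Throughout, for melting temperature (median over replicates), in situ: HeLa Kyoto cells synchronized by double thymidine or nocodazole block, proteins quantified by TMT10plex mass spectrometry, three independent biological replicates.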
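Throughout, for solubility change mitosis vs G1/S (difference of NP-40 vs SDS log2 ratios): synchronized HeLa Kyoto cells (double thymidine block for G1/S, nocodazole release for mitosis), protein amounts in NP-40 versus SDS lysates quantified by mass spectrometry, three biological replicates.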
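Throughout, for solubility in G1/S (NP-40 vs SDS abundance): HeLa Kyoto cells arrested at G1/S by double thymidine block, proteins quantified by TMT10plex mass spectrometry in mild NP-40 versus SDS extracts, three biological replicates.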
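Throughout, for thermal stability score vs G1/S (z-score of summed log2 fold changes over temperatures): synchronized HeLa Kyoto cells, proteins quantified by TMT10plex mass spectrometry, three biological replicates, mitosis taken 0.5 h after nocodazole release, G1/S directly after double thymidine block.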

Sequence | solubility change mitosis (log2) (HeLa Kyoto [1]) | melting temperature (HeLa Kyoto [2]; cell cycle stage: G1/S) | melting temperature (HeLa Kyoto [2]; cell cycle stage: mitosis) | solubility in G1/S (log2) (HeLa Kyoto [3]) | thermal stability score (HeLa Kyoto [4]; [5]) | thermal stability score (HeLa Kyoto [4]; cell cycle stage: mitosis)
MKLLTHNLLSSHVRGVGSRGFPLRLQATEVRICPVEFNPNFVARMIPKVEWSAFLEAADNLRLIQVPKGPVEGYEENEEFLRTMHHLLLEVEVIEGTLQCPESGRMFPISRGIPNMLLSEEETES [TRMT112] | 0.201 | 51.5 °C | 51.4 °C | 0.323 | -4.68 | -1.02
MKLLTRAGSFSRFYSLKVAPKVKATAAPAGAPPQPQDLEFTKLPNGLVIASLENYSPVSRIGLFIKAGSRYEDFSNLGTTHLLRLTSSLTTKGASSFKITRGIEAVGGKLSVTATRENMAYTVECLRGDVDILMEFLLNVTTAPEFRRWEVADLQPQLKIDKAVAFQNPQTHVIENLHAAAYRNALANPLYCPDYRIGKVTSEELHYFVQNHFTSARMALIGLGVSHPVLKQVAEQFLNMRGGLGLSGAKANYRGGEIREQNGDSLVHAAFVAESAVAGSAEANAFSVLQHVLGAGPHVKRGSNTTSHLHQAVAKATQQPFDVSAFNASYSDSGLFGIYTISQATAAGDVIKAAYNQVKTIAQGNLSNTDVQAAKNKLKAGYLMSVESSECFLEEVGSQALVAGSYMPPSTVLQQIDSVANADIINAAKKFVSGQKSMAASGNLGHTPFVDEL [UQCRC2] | -0.00613 | 55.8 °C | 54.7 °C | 0.243 | -1.64 | -4.8
MKLSRQFTVFGSAIFCVVIFSLYLMLDRGHLDYPRNPRREGSFPQGQLSMLQEKIDHLERLLAENNEIISNIRDSVINLSESVEDGPKSSQSNFSQGAGSHLLPSQLSLSVDTADCLFASQSGSHNSDVQMLDVYSLISFDNPDGGVWKQGFDITYESNEWDTEPLQVFVVPHSHNDPGWLKTFNDYFRDKTQYIFNNMVLKLKEDSRRKFIWSEISYLSKWWDIIDIQKKDAVKSLIENGQLEIVTGGWVMPDEATPHYFALIDQLIEGHQWLENNIGVKPRSGWAIDPFGHSPTMAYLLNRAGLSHMLIQRVHYAVKKHFALHKTLEFFWRQNWDLGSVTDILCHMMPFYSYDIPHTCGPDPKICCQFDFKRLPGGRFGCPWGVPPETIHPGNVQSRARMLLDQYRKKSKLFRTKVLLAPLGDDFRYCEYTEWDLQFKNYQQLFDYMNSQSKFKVKIQFGTLSDFFDALDKADETQRDKGQSMFPVLSGDFFTYADRDDHYWSGYFTSRPFYKRMDRIMESHLRAAEILYYFALRQAHKYKINKFLSSSLYTALTEARRNLGLFQHHDAITGTAKDWVVVDYGTRLFHSLMVLEKIIGNSAFLLILKDKLTYDSYSPDTFLEMDLKQKSQDSLPQKNIIRLSAEPRYLVVYNPLEQDRISLVSVYVSSPTVQVFSASGKPVEVQVSAVWDTANTISETAYEISFRAHIPPLGLKVYKILESASSNSHLADYVLYKNKVEDSGIFTIKNMINTEEGITLENSFVLLRFDQTGLMKQMMTKEDGKHHEVNVQFSWYGTTIKRDKSGAYLFLPDGNAKPYVYTTPPFVRVTHGRIYSEVTCFFDHVTHRVRLYHIQGIEGQSVEVSNIVDIRKVYNREIAMKISSDIKSQNRFYTDLNGYQIQPRMTLSKLPLQANVYPMTTMAYIQDAKHRLTLLSAQSLGVSSLNSGQIEVIMDRRLMQDDNRGLEQGIQDNKITANLFRILLEKRSAVNTEEEKKSVSYPSLLSHITSSLMNHPVIPMANKFSSPTLELQGEFSPLQSSLPCDIHLVNLRTIQSKVGNGHSNEAALILHRKGFDCRFSSKGTGLFCSTTQGKILVQKLLNKFIVESLTPSSLSLMHSPPGTQNISEINLSPMEISTFRIQLR [MAN2A1] | -0.156 | 54.8 °C | 54.8 °C | -0.0419 | 2.95 | 3.08
MKMTVDFEECLKDSPRFRAALEEVEGDVAELELKLDKLVKLCIAMIDTGKAFCVANKQFMNGIRDLAQYSSNDAVVETSLTKFSDSLQEMINFHTILFDQTQRSIKAQLQNFVKEDLRKFKDAKKQFEKVSEEKENALVKNAQVQRNKQHEVEEATNILTATRKCFRHIALDYVLQINVLQSKRRSEILKSMLSFMYAHLAFFHQGYDLFSELGPYMKDLGAQLDRLVVDAAKEKREMEQKHSTIQQKDFSSDDSKLEYNVDAANGIVMEGYLFKRASNAFKTWNRRWFSIQNNQLVYQKKFKDNPTVVVEDLRLCTVKHCEDIERRFCFEVVSPTKSCMLQADSEKLRQAWIKAVQTSIATAYREKGDESEKLDKKSSPSTGSLDSGNESKEKLLKGESALQRVQCIPGNASCCDCGLADPRWASINLGITLCIECSGIHRSLGVHFSKVRSLTLDTWEPELLKLMCELGNDVINRVYEANVEKMGIKKPQPGQRQEKEAYIRAKYVERKFVDKYSISLSPPEQQKKFVSKSSEEKRLSISKFGPGDQVRASAQSSVRSNDSGIQQSSDDGRESLPSTVSANSLYEPEGERQDSSMFLDSKHLNPGLQLYRASYEKNLPKMAEALAHGADVNWANSEENKATPLIQAVLGGSLVTCEFLLQNGANVNQRDVQGRGPLHHATVLGHTGQVCLFLKRGANQHATDEEGKDPLSIAVEAANADIVTLLRLARMNEEMRESEGLYGQPGDETYQDIFRDFSQMASNNPEKLNRFQQDSQKF [ACAP2] | -0.215 | 49.8 °C | – | -0.0242 | 0.348 | 0.369
MKNQDKKNGAAKQSNPKSSPGQPEAGPEGAQERPSQAAPAVEAEGPGSSQAPRKPEGAQARTAQSGALRDVSEELSRQLEDILSTYCVDNNQGGPGEDGAQGEPAEPEDAEKSRTYVARNGEPEPTPVVNGEKEPSKGDPNTEEIRQSDEVGDRDHRRPQEKKKAKGLGKEITLLMQTLNTLSTPEEKLAALCKKYAELLEEHRNSQKQMKLLQKKQSQLVQEKDHLRGEHSKAVLARSKLESLCRELQRHNRSLKEEGVQRAREEEEKRKEVTSHFQVTLNDIQLQMEQHNERNSKLRQENMELAERLKKLIEQYELREEHIDKVFKHKDLQQQLVDAKLQQAQEMLKEAEERHQREKDFLLKEAVESQRMCELMKQQETHLKQQLALYTEKFEEFQNTLSKSSEVFTTFKQEMEKMTKKIKKLEKETTMYRSRWESSNKALLEMAEEKTVRDKELEGLQVKIQRLEKLCRALQTERNDLNKRVQDLSAGGQGSLTDSGPERRPEGPGAQAPSSPRVTEAPCYPGAPSTEASGQTGPQEPTSARA [TXLNA] | 0.248 | 52.5 °C | 52.6 °C | 0.802 | 0.411 | -0.854
MKPRPAGFVDNKLKQRVIQYLTSNKCGKYVDIGVLASDLQRVYSIDYGRRKRNAFRIQVEKVFSIISSEKELKNLTELEDEHLAKRARQGEEDNEYTESYSDDDSSMEDYPDPQSANHMNSSLLSLYRKGNPDSVSNTPEMEQRETTSSTPRISSKTGSIPLKTPAKDSEGGWFIDKTPSVKKDSFFLDLSCEKSNPKKPITEIQDSKDSSLLESDMKRKGKLKNKGSKRKKEDLQEVDGEIEAVLQKKAKARGLEFQISNVKFEDVGGNDMTLKEVCKMLIHMRHPEVYHHLGVVPPRGVLLHGPPGCGKTLLAHAIAGELDLPILKVAAPEIVSGVSGESEQKLRELFEQAVSNAPCIIFIDEIDAITPKREVASKDMERRIVAQLLTCMDDLNNVAATARVLVIGATNRPDSLDPALRRAGRFDREICLGIPDEASRERILQTLCRKLRLPQAFDFCHLAHLTPGFVGADLMALCREAAMCAVNRVLMKLQEQQKKNPEMEDLPSKGVQEERLGTEPTSETQDELQRLLGLLRDQDPLSEEQMQGLCIELNDFIVALSSVQPSAKREGFVTVPNVTWADIGALEDIREELTMAILAPVRNPDQFKALGLVTPAGVLLAGPPGCGKTLLAKAVANESGLNFISVKGPELLNMYVGESERAVRQVFQRAKNSAPCVIFFDEVDALCPRRSDRETGASVRVVNQLLTEMDGLEARQQVFIMAATNRPDIIDPAILRPGRLDKTLFVGLPPPADRLAILKTITKNGTKPPLDADVNLEAIAGDLRCDCYTGADLSALVREASICALRQEMARQKSGNEKGELKVSHKHFEEAFKKVRSSISKKDQIMYERLQESLSR [NVL] | 0.882 | 53.8 °C | 52.7 °C | -1.77 | 1.41 | 1.19
MKRRLDDQESPVYAAQQRRIPGSTEAFPHQHRVLAPAPPVYEAVSETMQSATGIQYSVTPSYQVSAMPQSSGSHGPAIAAVHSSHHHPTAVQPHGGQVVQSHAHPAPPVAPVQGQQQFQRLKVEDALSYLDQVKLQFGSQPQVYNDFLDIMKEFKSQSIDTPGVISRVSQLFKGHPDLIMGFNTFLPPGYKIEVQTNDMVNVTTPGQVHQIPTHGIQPQPQPPPQHPSQPSAQSAPAPAQPAPQPPPAKVSKPSQLQAHTPASQQTPPLPPYASPRSPPVQPHTPVTISLGTAPSLQNNQPVEFNHAINYVNKIKNRFQGQPDIYKAFLEILHTYQKEQRNAKEAGGNYTPALTEQEVYAQVARLFKNQEDLLSEFGQFLPDANSSVLLSKTTAEKVDSVRNDHGGTVKKPQLNNKPQRPSQNGCQIRRHPTGTTPPVKKKPKLLNLKDSSMADASKHGGGTESLFFDKVRKALRSAEAYENFLRCLVIFNQEVISRAELVQLVSPFLGKFPELFNWFKNFLGYKESVHLETYPKERATEGIAMEIDYASCKRLGSSYRALPKSYQQPKCTGRTPLCKEVLNDTWVSFPSWSEDSTFVSSKKTQYEEHIYRCEDERFELDVVLETNLATIRVLEAIQKKLSRLSAEEQAKFRLDNTLGGTSEVIHRKALQRIYADKAADIIDGLRKNPSIAVPIVLKRLKMKEEEWREAQRGFNKVWREQNEKYYLKSLDHQGINFKQNDTKVLRSKSLLNEIESIYDERQEQATEENAGVPVGPHLSLAYEDKQILEDAAALIIHHVKRQTGIQKEDKYKIKQIMHHFIPDLLFAQRGDLSDVEEEEEEEMDVDEATGAVKKHNGVGGSPPKSKLLFSNTAAQKLRGMDEVYNLFYVNNNWYIFMRLHQILCLRLLRICSQAERQIEEENREREWEREVLGIKRDKSDSPAIQLRLKEPMDVDVEDYYPAFLDMVRSLLDGNIDSSQYEDSLREMFTIHAYIAFTMDKLIQSIVRQLQHIVSDEICVQVTDLYLAENNNGATGGQLNTQNSRSLLESTYQRKAEQLMSDENCFKLMFIQSQGQVQLTIELLDTEEENSDDPVEAERWSDYVERYMNSDTTSPELREHLAQKPVFLPRNLRRIRKCQRGREQQEKEGKEGNSKKTMENVDSLDKLECRFKLNSYKMVYVIKSEDYMYRRTALLRAHQSHERVSKRLHQRFQAWVDKWTKEHVPREMAAETSKWLMGEGLEGLVPCTTTCDTETLHFVSINKYRVKYGTVFKAP [SIN3A] | -0.073 | 48.4 °C | 49.5 °C | -0.136 | 1.76 | 4.27
MKRSGTLRLLSDLSAFGGAARLRELVAGDSAVRVRGSPDGRHLLLLRPPGAVAPQLLVASRGPGAELERAWPAGQPSPLDAFFLPWPARPALVLVWESGLAEVWGAGVGPGWRPLQSTELCPGGGARVVAVAALRGRLVWCEERQARAEGPSGSPAAAFSHCVCVRTLEPSGEASTSLGRTHVLLHHCPAFGLLASCRQLFLVPTATTWPGVAHVLLIWSPGKGKVMVAAPRLGLSYSKSLNPGRGDTWDFRTLLRGLPGLLSPREPLAVHTWAPTPQGLLLLDFGGTVSLLQSHGGTRAVGTLQEAPVGPWGSAALGTFQGTLACVLGSTLELLDMGSGQLLERKVLSTDRVHLLEPPAPGMEDEEELETRGNLRLLSALGLFCVGWEAPQGVELPSAKDLVFEEACGYYQRRSLRGAQLTPEELRHSSTFRAPQALASILQGHLPPSALLTMLRTELRDYRGLEQLKAQLVAGDDEEAGWTELAEQEVARLLRTELIGDQLAQLNTVFQALPTAAWGATLRALQLQLDGNGKLRSQAPPDVWKKVLGGITAGKEPPNGILPPFELLCQCLCQLEPRWLPPFVELAQQQGGPGWGAGGPGLPLYRRALAVLGEEGTRPEALELELLLSSGRPKAVLQAVGQLVQKEQWDRALDAGLALGPSSPLLRSEIFKLLLAEFAQHRRLDAHLPLLCRLCPPELAPAELLLLLRTYLPDEVGPPTPFPEPGAEPPLTVGLLKALLEQTGAQGWLSGPVLSPYEDILWDPSTPPPTPPRDL [HPS6] | -0.149 | 49.3 °C | 49.1 °C | 0.12 | 0.139 | 0.929
